# Test results reported in patent publication US20230321183A1.
# Target: OTi TCR on OT-I mouse T cells
# Assay: cell-based or functional assay
substance,measurement,value
FITC-conjugated tetramer H2Kb-SIINFEKL (from UniProt P01901 22-305) (peptide-MHC),cytotoxicity of human primary CD8 anti-FITC CAR T cells on OTi cells,> 50%
